# Results reported in paper PMC9462479 (2022).
# B1: myc-tagged human ARMC5 (pcDNA3.1-myc-hARMC5), wild type [human] / FLAG-SREBF1(N), N-terminus of mouse SREBF1, from pcDNA3.1-FLAG-Srebf1(N) in HEK293T [mouse] (parent complex)
# chain 1: MAAAKPTLTDSLSFCLAQLAAAAGEALGGEKDPATNETPLSRALLALRTRHIKAAGGIERFRARGGLRPLLALLRRAAAAGSAPSQAGPGSAPSSAASGASSPAPASGPAPSAVSSSSPTPPVRLRKTLDLALSILADCCTEGACRTEVRRLGGILPLVTILQCMKTDSIQNRTARALGNLAMEPESCGDIHCAGAVPLLVESLTACQDSQCLQSVVRALRNLADSPQHRLALAQQGAVRPLAELLATAPDAALTLALVRALLELSRGCSRACAEQLSLGGGLGPLVSLASHPKRAVREGTILILANLCAQGLIRPALGNAGGVEVLVDELRQRRDPNGASPTSQQPLVRAVCLLCREAINRARLRDAGGLDLLMGLLRDPRASAWHPRIVAALVGFLYDTGALGRLQALGLVPLLAGQLCGEAGEEEEEGREAASWDFPEERTPERAQGGSFRSLRSWLISEGYATGPDDISPDWSPEQCPPEPMEPASPAPTPTSLRAPRTQRTPGRSPAAAIEEPWGREGPALLLLSRFSQAPDPSGALVTGPALYGLLTYVTGAPGPPSPRALRILSRLTCNPACLEAFVRSYGAALLRAWLVLGVAPDDWPAPRARPTLHSRHRELGERLLQNLTVQAESPFGVGALTHLLLSGSPEDRVACALTLPFICRKPSLWRRLLLEQGGLRLLLAALTRPAPHPLFLFFAADSLSCLQDLVSPTVSPAVPQAVPMDLDSPSPCLYEPLLGPAPVPAPDLHFLLDSGLQLPAQRAASATASPFFRALLSGSFAEAQMDLVPLRGLSPGAAWPVLHHLHGCRGCGAALGPVPPPGQPLLGSEAEEALEAAGRFLLPGLEEELEEAVGRIHLGPQGGPESVGEVFRLGRPRLAAHCARWTLGSEQCPRKRGLALVGLVEAAGEEAGPLTEALLAVVMGIELGARVPA
# chain 2: DELAFGEAALEQTLAEMCELDTAVLNDIEDMLQLINNQDSDFPGLFDAPYAGGETGDTGPSSPGANSPESFSSASLASSLEAFLGGPKVTPAPLSPPPSAPAALKMYPSVSPFSPGPGIKEEPVPLTILQPAAPQPSPGTLLPPSFPAPPVQLSPAPVLGYSSLPSGFSGTLPGNTQQPPSSLPLAPAPGVLPTPALHTQVQSLASQQPLPASAAPRTNTVTSQVQQVPVVLQPHFIKADSLLLTAVKTDAGATVKTAGISTLAPGTAVQAGPLQTLVSGGTILATVPLVVDTDKLPIHRLAAGSKALGSAQSRGEKRTAHNAIEKRYRSSINDKIVELKDLVVGTEAKLNKSAVLRKAIDYIRFLQHSNQKLKQENLTLRSAHKSKSLKDLVSACGSGGGTDVSMEGMKPEVVETLTPPPSDAGSPSQSSPLSFGSRASSSGGSDSEPDSP
# Variants of: B1
# Assay: co-immunoprecipitation (anti-FLAG IP) with western blot densitometry; HEK293T cells; n = 3; read off a plot
row,Variant,response [A.U.]
1,chain 1 R315W,~0.12
2,chain 1 L331P,~0.12
3,chain 1 R362L,~0.075
4,chain 1 R898W,~0.3
5,chain 1 L754P,~0.31
